Holding throughout (format): physicochemical
One series addresses T1, FUS (Homo sapiens, UniProt P35637).
T1 construct: made in house; host or cells: SF9-ESF insect cells (baculovirus) for the unlabelled FUS
T1 sequence (P35637 1-526): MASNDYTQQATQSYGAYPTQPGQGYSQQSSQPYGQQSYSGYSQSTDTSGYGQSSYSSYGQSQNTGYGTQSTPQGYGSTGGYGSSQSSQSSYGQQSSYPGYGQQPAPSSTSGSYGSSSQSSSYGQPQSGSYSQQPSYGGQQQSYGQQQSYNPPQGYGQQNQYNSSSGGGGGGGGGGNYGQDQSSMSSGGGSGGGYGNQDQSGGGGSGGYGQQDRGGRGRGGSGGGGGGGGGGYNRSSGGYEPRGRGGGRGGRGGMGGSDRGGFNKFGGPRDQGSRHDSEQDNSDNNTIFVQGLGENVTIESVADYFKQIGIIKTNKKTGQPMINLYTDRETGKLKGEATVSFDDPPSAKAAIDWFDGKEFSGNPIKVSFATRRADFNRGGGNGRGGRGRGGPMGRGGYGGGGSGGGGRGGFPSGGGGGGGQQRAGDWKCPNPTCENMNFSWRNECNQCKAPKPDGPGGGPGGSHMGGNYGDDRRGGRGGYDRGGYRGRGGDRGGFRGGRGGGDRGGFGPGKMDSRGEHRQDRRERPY
Nature of the series: Effect of a small molecule drug on the phase diagram (binodal) of FUS, inPhase method. The settings on record: compared to untreated control (DMSO); temperature phase diagram, FIG. 9. The source says: • 1. Measure the protein concentration of the stock solutions. The stock solutions can be unlabelled, a mix of labelled and unlabelled or fully labelled protein. Solutions containing only unlabelled protein will be detected using brightfield (or phase-contrast, DIC, etc.) while the mixes that contain labelled protein can be also detected with fluorescence means. • 2. Make a titration series of the protein solution. • 3. Trigger phase separation of the protein samples. Phase separation can be triggered for example by a change in salt, pH or temperature. • 4. Immediately after triggering phase separation, encapsulate in a water-in-oil system (e.g. PicoSurf oil (Sphere Fluidics, UK)). • 5. Centrifugation after encapsulation is optional but helps in the segmentation of the condensates. This is because the centrifugation coarsens the condensates. • 6. Load the titration series into chambers for microscopy imaging. […] Now the ratio condensate over emulsion droplet volume which is the volume fraction can be determined. In case of fluorescently labelled proteins the determination of the condensate volume can be complemented by fluorescence microscopy. • 8. Perform the image and segmentation analysis and fit the measured volume-fractions to a linear regression over the protein concentrations. • 9. […]

Series [1] can be described thus: Partition factor derived from inPhase phase diagrams (water-in-oil emulsions). The note with it: range over the tested temperatures and salt (KCl) concentrations, FIG. 15a. The source says:
Partition factor and comparison to fluorescence-based quantification. The partition factor (PF) is often used in condensate research to characterise the up-concentration of protein in the condensed phase. It can be defined by the ratio of the condensed-over dilute-phase concentration (PF=ccon/cdil). In the condensate field it is common to determine the partition factor by comparing fluorescence intensity inside the condensate against the intensity in the dilute phase. In contrast, our method allows us to directly determine the partition factor by using the presented phase diagrams (FIG. 13 and FIG. 14).
• 1. Measure the protein concentration of the stock solutions. The stock solutions can be unlabelled, a mix of labelled and unlabelled or fully labelled protein. Solutions containing only unlabelled protein will be detected using brightfield (or phase-contrast, DIC, etc.) while the mixes that contain labelled protein can be also detected with fluorescence means. • 2. […] Now the ratio condensate over emulsion droplet volume which is the volume fraction can be determined. In case of fluorescently labelled proteins the determination of the condensate volume can be complemented by fluorescence microscopy. • 8. Perform the image and segmentation analysis and fit the measured volume-fractions to a linear regression over the protein concentrations. • 9. […]

The next series concerns the target T2, FUS-GFP (Homo sapiens, UniProt P35637).
T2 construct: made in house; the listing says 'purified from BAC construct')
Nature of the series: Effect of RNA on protein phase separation (poly(A) RNA : FUS-GFP at fixed molar ratio). The settings on record: titration of total protein concentration at constant poly(A) RNA to protein ratio, FIG. 16. As for the experimental part:
FUS-GFP containing samples were prepared as described in Example 1. Phase separation was triggered by simultaneously lowering the salt concentration of the sample and adding the Poly(A) RNA in an amount to maintain a fixed molar ratio of Poly(A):FUS-GFP. The volume fraction of the condensed phase was determined as described in Example 1 and cdil and ccon, were determined, wherein ccon represents an apparent concentration containing both Poly(A) (SEQ ID No: 3) and FUS-GFP concentration. The concentration of the single components of the sample can be resolved by the knowledge of the molar ratio of RNA to protein in the condensed phase (FIG. 16).

In the case of `NC(=O)CCCCC1CCSS1` (stereo not drawn) [Lipoamide], at FUS, the “effect on the phase behavior of FUS (condensed phase branch of the binodal)” value is “reduced amount of conformational changes at higher temperatures”.

B1: PGL-3: protein component of P granules in the germline of C. elegans; spiked with 5% PGL-3::GFP (protein, UniProt G5EBV6 1-693, looked up)
Guanyl-specific ribonuclease …: MEANKRQIVEVDGIKSYFFPHLAHYLASNDELLVNNIAQANKLAAFVLGATDKRPSNEEIAEMILPNDSSAYVLAAGMDVCLILGDDFRPKFDSGAEKLSQLGQAHDLAPIIDDEKKISMLARKTKLKKSNDAKILQVLLKVLGAEEAEEKFVELSELSSALDLDFDVYVLAKLLGFASEELQEEIEIIRDNVTDAFEACKPLLKKLMIEGPKIDSVDPFTQLLLTPQEESIEKAVSHIVARFEEASAVEDDESLVLKSQLGYQLIFLVVRSLADGKRDASRTIQSLMPSSVRAEVFPGLQRSVFKSAVFLASHIIQVFLGSMKSFEDWAFVGLAEDLESTWRRRAIAELLKKFRISVLEQCFSQPIPLLPQSELNNETVIENVNNALQFALWITEFYGSESEKKSLNQLQFLSPKSKNLLVDSFKKFAQGLDSKDHVNRIIESLEKSSSSEPSATAKQTTTSNGPTTVSTAAQVVTVEKMPFSRQTIPCEGTDLANVLNSAKIIGESVTVAAHDVIPEKLNAEKNDNTPSTASPVQFSSDGWDSPTKSVALPPKISTLEEEQEEDTTITKVSPQPQERTGTAWGSGDATPVPLATPVNEYKVSGFGAAPVASGFGQFASSNGTSGRGSYGGGRGGDRGGRGAYGGDRGRGGSGDGSRGYRGGDRGGRGSYGEGSRGYQGGRAGFFGGSRGGS
modifications: spiked with 5% PGL-3::GFP
notes: protein component of P granules in the germline of C. elegans; spiked with 5% PGL-3::GFP
Consider B1, for which, in series [1], the “partition factor (PF=ccon/cdil)” value is on record as 10^1-10^3.

B2: poly(A) RNA: Poly(A) RNA (SEQ ID No: 3) added to FUS-GFP at a fixed molar ratio (nucleic acid)
chain: AAAAAAAAAAAAAAAAAAAAAAAAAAAAAAAAAAAAAAAAAAAAAAAAAAAAAAAAAAAAAAAAAAAAAAAAAAAAAAAAAAAAAAAAAAAAAAAAAAAAAAAAAAAAAAAAAAAAAAAAAAAAAAAAAAAAAAAAAAAAAAAAAAAAAAAAAAAAAAAAAAAAAAAAAAAAAAAAAAAAAAAAAAAAAAAAAAAAAAAAAAAAAAAAAAAAAAAAAAAAAAAAAAAAAAAAAAAAAAAAAAAAAAAAAA
modifications: misc_feature 1..250 Poly(A) RNA
Consider B2, for which the “effect of increasing the RNA to protein ratio on cdil” value in the series with FUS-GFP is on record as “reduces cdil”.

Source of the values: patent publication US20250347697A1, “Accurate Method for Generating a Phase Diagram of a Polymer” (MAX-PLANCK-GESELLSCHAFT ZUR FÖRDERUNG DER WISSENSCHAFTEN …, priority 2022, published 2025).
